Numbering of substitutions follows the chain as printed.

The target of assay [1] is human Claudin18.2 (human) (UniProt P56856). In words: cell-based or functional assay.
Assay [2] shares this target. In words: flow cytometry (IntelliCyt) on Ba/F3-Claudin 18.2 cells.

B1: humanized antibody 1E9.2-hz15 (antibody, human IgG1, kappa, V domains shown)
VH: EVQLVESGGGLVKPGGSLRLSCAASGFSFSNSAMSWVRQAPGKGLEWVSTISSGDSYTYYADSVKGRFTISRDNAKNSLYLQMNSLRAEDTAVYYCARQGYGNALDYWGQGTLVTVSS
VL: DIVMTQTPLSLPVTPGEPASISCKSSQSLLNSGNQKNYLTWYLQKPGQSPQLLIYWSSTRESGVPDRFSGSGSGTDFTLKISRVEAEDFGVYYCQNDYYYPLTFGGGTKVEIKR
B1: in assay [1], the ADCC EC50 came to 0.08 µg/mL and the ADCC Max killing rate % is 66.2%. In addition, the Max MFI in assay [2] amounted to 8.99e+06 MFI.

B2: humanized antibody 1E9.2-hz17 (antibody, human IgG1, kappa, V domains shown)
VH: B1 VH
VL: B1 VL with N31Q, Q35G
In assay [1], B2 yielded an ADCC EC50 of 0.113 µg/mL and an ADCC Max killing rate % of 59.6%. Moreover, the Max MFI in assay [2] was 5.9e+06 MFI.

The record behind these values is US20230192840A1.
